Results: patent US20020160949A1 (WHITEHEAD INSTITUTE FOR BIOMEDICAL RESEARCH, published 2002)

Experiments:
murine IL-7Rα = target: T1, murine IL-7Rα (murine, UniProt P16872 21-459); test: affinity labeling of transfected 293 cells with 125I-TSLP, DSS cross-linking, SDS-PAGE
T1 construct: whole, on cells; Expressed alone on transfected 293 cells; also called murine IL-7Rα alone
T1 sequence (looked up): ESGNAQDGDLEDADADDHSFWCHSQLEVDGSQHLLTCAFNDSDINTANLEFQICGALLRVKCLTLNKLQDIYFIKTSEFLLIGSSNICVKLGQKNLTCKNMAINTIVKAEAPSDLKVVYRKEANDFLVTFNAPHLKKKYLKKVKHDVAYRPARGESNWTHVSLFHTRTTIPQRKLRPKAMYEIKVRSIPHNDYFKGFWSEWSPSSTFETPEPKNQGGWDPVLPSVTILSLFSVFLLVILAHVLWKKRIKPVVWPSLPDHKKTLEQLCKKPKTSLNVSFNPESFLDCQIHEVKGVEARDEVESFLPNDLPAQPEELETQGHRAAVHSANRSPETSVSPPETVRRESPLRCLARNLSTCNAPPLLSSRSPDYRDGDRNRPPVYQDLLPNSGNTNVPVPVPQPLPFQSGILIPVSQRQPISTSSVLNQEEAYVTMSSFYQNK
Description: The binding of TSLP to TSLPR polypeptide in the presence of IL-7Rα was examined in affinity labeling assays. Affinity labeling assays were performed by adding 1-5 nM of ¹²⁵I-labeled TSLP to 5×10⁶ 293 cells transfected with expression constructs for murine IL-7Rα, murine TSLPR polypeptide, murine IL-7Rα and murine TSLPR polypeptide, or human IL-7Rα and murine TSLPR polypeptide. Iodinated TSLP was prepared by adding IODO-GEN (Pierce, Rockford, Ill.) and 2 mCi ¹²⁵I to 1 μg of TSLP. A specific activity of approximately 200-300 μCi/μg was obtained by this method. Prior to affinity labeling, 293 cells were transiently transfected using the calcium phosphate method (Eppendorf-5 Prime, Boulder, Colo.). Following a 2 hour incubation with ¹²⁵I-TSLP, cells were cross-linked with 0.1 mg/ml disuccinimidyl suberate (Pierce), lysed in lysis buffer, and the lysates resolved by SDS-PAGE.

[1] = target: T2, TSLP receptors constitutively expressed on NAG8/7 cells; test: displacement binding of 125I-TSLP by unlabeled TSLP on NAG8/7 cells, Scatchard transformation
T2 construct: also called single class of receptors
Description: The binding of TSLP to 293 cells transfected with murine IL-7Rα and murine TSLPR polypeptide, or murine IL-7Rα alone, was analyzed in a displacement binding assay. Following two washes, 1×10⁶transfected 293 cells were incubated in a constant amount of ¹²⁵I-labeled TSLP (approximately 20,000 cpm) and varying amounts of unlabeled TSLP. Following a 3 hour incubation, treated cells were separated from the medium by centrifugation in olive oil and N-butylphthalate. Cell-bound radioactivity was measured using a gamma counter.
Analysis of binding data by Scatchard transformation was performed using the LIGAND computer program (Munson and Rodbard, 1980, Anal. Biochem. 107:220-39). […] Due to the very low binding activity of TSLP for cells expressing TSLPR polypeptide alone, it was not possible to determine the Kd for these cells. Displacement binding assays were also performed using NAG8/7 cells, which constitutively express TSLP receptors and proliferate in response to TSLP (Friend et al., supra; Levin et al., supra). In these displacement binding assays, 5×10⁶ NAG8/7 cells were incubated in a constant amount of ¹²⁵I-labeled TSLP (approximately 180,000 cpm) and varying amounts of unlabeled TSLP. The remainder of the assay was performed as described herein.

T2 sequence (Q8CII9 20-359): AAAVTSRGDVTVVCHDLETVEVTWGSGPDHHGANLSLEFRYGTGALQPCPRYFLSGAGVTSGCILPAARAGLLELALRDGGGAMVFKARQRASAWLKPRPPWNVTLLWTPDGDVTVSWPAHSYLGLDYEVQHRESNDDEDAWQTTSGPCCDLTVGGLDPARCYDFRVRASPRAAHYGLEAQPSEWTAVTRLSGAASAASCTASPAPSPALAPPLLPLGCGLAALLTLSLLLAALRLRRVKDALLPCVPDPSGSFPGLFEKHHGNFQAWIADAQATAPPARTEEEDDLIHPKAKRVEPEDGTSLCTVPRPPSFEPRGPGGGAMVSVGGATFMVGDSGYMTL

Kd [1]: ~2.2 nM
B1: Thymic stromal lymphopoietin (TSLP) (ligand, UniProt Q9JIE6 20-140, looked up)
chain: YNFSNCNFTSITKIYCNIIFHDLTGDLKGAKFEQIEDCESKPACLLKIEYYTLNPIPGCPSLPDKTFARRTREALNDHCPGYPETERNDGTQEMAQEVQNICLNQTSQILRLWYSFMQSPE
binding result (murine IL-7Rα): no binding (tested: 1-5 nM of 125I-labeled TSLP)
